± gives the standard error. For some assays here: This sample holds only a part of the variants without activity.
B1: glmS ribozyme (parent)
chain: AUAAAAGCGCCAGAACUACAGAAAUGUAGUUGACGAGGAGGAGGUUUAUCGAAUUUUCGGCGGAUGCCUCCAAA

Experiments:
Conditions in all cases: with glucosamine-6-phosphate
glucosamine-6-phosphate [1] = variants of: B1; test: kcat; higher = faster cleavage; RNA array
Summary of the method: (§1)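 Sequenced MiSeq chips were the platform: E. coli RNA polymerase transcribed barcoded ribozyme variants on them in situ, and a hybridised Cy3 probe tracked these at 37 °C. After glucosamine-6-phosphate (40 μM to 10 mM) in HEPES/KCl/Mg(OAc)2 buffer was flowed in, tiles were imaged over ~14 h. Signals normalised to baseline and to non-cleaving reference variants were reduced to per-tile medians and fit to one- or two-exponential decays to obtain kobs. kcat and KM were derived through weighted Michaelis–Menten fits across concentrations.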

glucosamine-6-phosphate [2] = variants of: B1; test: self-cleavage kobs at 640 uM GlcN6P; higher = faster cleavage; RNA array
Summary of the method: as §1

glucosamine-6-phosphate [3] = variants of: B1; test: self-cleavage kobs at 2500 uM GlcN6P; higher = faster cleavage; RNA array
Summary of the method: as §1

glucosamine-6-phosphate [4] = variants of: B1; test: self-cleavage kobs at 40 uM GlcN6P; higher = faster cleavage; RNA array
Summary of the method: as §1

glucosamine-6-phosphate [5] = variants of: B1; test: KM; higher = weaker cofactor use; RNA array
Summary of the method: as §1

glucosamine-6-phosphate [6] = variants of: B1; test: self-cleavage kobs at 10000 uM GlcN6P; higher = faster cleavage; RNA array
Summary of the method: as §1

glucosamine-6-phosphate [7] = variants of: B1; test: self-cleavage kobs at 160 uM GlcN6P; higher = faster cleavage; RNA array
Summary of the method: as §1

| Variant | kcat (glucosamine-6-phosphate [1]) [s⁻¹] | self-cleavage kobs at 640 uM GlcN6P (glucosamine-6-phosphate [2]) [s⁻¹] | self-cleavage kobs at 2500 uM GlcN6P (glucosamine-6-phosphate [3]) [s⁻¹] | self-cleavage kobs at 40 uM GlcN6P (glucosamine-6-phosphate [4]) [s⁻¹] | KM (glucosamine-6-phosphate [5]) [µM] | self-cleavage kobs at 10000 uM GlcN6P (glucosamine-6-phosphate [6]) [s⁻¹] | self-cleavage kobs at 160 uM GlcN6P (glucosamine-6-phosphate [7]) [s⁻¹] |
| --- | --- | --- | --- | --- | --- | --- | --- |
| C50U C71G | 3.46e-05 ± 1.4e-05 | 4.43e-05 ± 1e-05 | – | – | – | – | – |
| A53C U69G | 4.01e-05 ± 8e-06 | 5.28e-05 ± 1.3e-05 | 4.25e-05 ± 8.8e-06 | – | – | – | – |
| G51A U54A | < 1e-05 | – | – | – | – | – | – |
| G51A C67U | < 1e-05 | – | – | < 1e-05 | – | – | – |
| G51U G60C C68A | 2.85e-05 ± 8.6e-06 | – | – | – | – | – | – |
| C50U C61A C68U | 2.59e-05 ± 6.9e-06 | – | – | – | – | – | – |
| C50U C68A | 3.06e-05 ± 9.8e-06 | 4.9e-05 ± 1.9e-05 | 3.28e-05 ± 1.5e-05 | – | – | – | – |
| A48C A53C | 9.8e-05 ± 1.5e-05 | – | 3.99e-05 ± 1.2e-05 | – | 4010 ± 1400 | 6.89e-05 ± 1.7e-05 | – |
| A48C A53U | 0.000244 ± 1.5e-05 | 4.84e-05 ± 1.1e-05 | 0.000131 ± 2e-05 | – | 2410 ± 320 | 0.000191 ± 3e-05 | – |
| A53G U56A | 0.0133 ± 0.0047 | 0.00273 ± 0.00051 | 0.00663 ± 0.0019 | 0.000437 ± 9e-05 | 1830 ± 890 | 0.0137 ± 0.0026 | 0.00116 ± 0.00021 |
| A48U U69G | 5.22e-05 ± 2.1e-05 | – | 7.45e-05 ± 1.7e-05 | – | – | – | – |
| A48U U65A | 5.33e-05 ± 4.6e-06 | – | – | – | – | – | < 1e-05 |
| A48G U55A | 0.000106 ± 2.6e-06 | – | 7.8e-05 ± 3.7e-05 | – | 1160 ± 180 | 9.5e-05 ± 8.9e-06 | – |
| A48G U55G | 9.18e-05 ± 6.4e-06 | 4.19e-05 ± 7.6e-06 | 0.000108 ± 3.8e-05 | < 1e-05 | 759 ± 210 | 8.43e-05 ± 7.8e-06 | – |
| A48U U65G C70U | 0.00017 ± 4.1e-05 | – | 0.000122 ± 2.8e-05 | – | – | 0.000132 ± 3e-05 | < 1e-05 |
| A52U C67A | 0.000206 ± 1.5e-05 | 6.53e-05 ± 8.3e-06 | 0.000124 ± 1.6e-05 | – | 1480 ± 240 | 0.000183 ± 2.1e-05 | – |
| A52G U69G | 5.99e-05 ± 2e-05 | 0.000113 ± 2.5e-05 | 7.25e-05 ± 1.2e-05 | – | – | – | 7.33e-05 ± 1.4e-05 |

| Variant | kcat (glucosamine-6-phosphate [1]) [s⁻¹] | self-cleavage kobs at 640 uM GlcN6P (glucosamine-6-phosphate [2]) [s⁻¹] | self-cleavage kobs at 2500 uM GlcN6P (glucosamine-6-phosphate [3]) [s⁻¹] | self-cleavage kobs at 40 uM GlcN6P (glucosamine-6-phosphate [4]) [s⁻¹] | KM (glucosamine-6-phosphate [5]) [µM] | self-cleavage kobs at 10000 uM GlcN6P (glucosamine-6-phosphate [6]) [s⁻¹] | self-cleavage kobs at 160 uM GlcN6P (glucosamine-6-phosphate [7]) [s⁻¹] |
| --- | --- | --- | --- | --- | --- | --- | --- |
| A48G U57C C61A | < 1e-05 | – | < 1e-05 | – | – | – | – |
| C50G G59C | 4e-05 ± 1.5e-05 | – | 5.58e-05 ± 2.3e-05 | – | – | – | 6.56e-05 ± 3.2e-05 |
| U49G C71U | 0.00102 ± 0.00022 | 0.000246 ± 2.9e-05 | 0.00041 ± 6.9e-05 | 3.07e-05 ± 9.2e-06 | 2160 ± 970 | 0.000902 ± 7.8e-05 | – |
| U49G C71A | 0.000155 ± 8.2e-06 | 5.22e-05 ± 1.8e-05 | 8.83e-05 ± 2.5e-05 | – | 1460 ± 260 | 0.000137 ± 1.9e-05 | – |
| A52G G62U | < 1e-05 | – | – | – | – | – | – |
| C50G U55G | 3.86e-05 ± 1.8e-05 | – | 4.97e-05 ± 1.6e-05 | – | – | – | 7.28e-05 ± 1.9e-05 |
| A48C U69C | 7.16e-05 ± 1.1e-05 | 6.02e-05 ± 1.9e-05 | 9.22e-05 ± 2.4e-05 | < 1e-05 | – | 6.44e-05 ± 1.5e-05 | < 1e-05 |
| A48U A64U | 0.000129 ± 1.1e-05 | – | 4.13e-05 ± 1.2e-05 | – | 5510 ± 1000 | 8.33e-05 ± 1.3e-05 | – |
| A48U A53U | 0.000308 ± 4.1e-05 | 0.000104 ± 3.1e-05 | 0.000161 ± 2e-05 | – | 1960 ± 750 | 0.000265 ± 2.8e-05 | – |
| A52G U55G | 0.00167 ± 0.00021 | 0.000252 ± 2.5e-05 | 0.000786 ± 7.4e-05 | – | 3170 ± 560 | 0.00124 ± 0.00013 | 8.73e-05 ± 8.7e-06 |
| A52G U55C | 0.00205 ± 0.00032 | 0.000325 ± 5e-05 | 0.000739 ± 9.4e-05 | 3.24e-05 ± 8.4e-06 | 3680 ± 850 | 0.00158 ± 0.00017 | 8.26e-05 ± 1.2e-05 |
| A52G C67U | 0.000905 ± 0.00016 | 0.000166 ± 2.3e-05 | 0.000524 ± 8.6e-05 | 2.66e-05 ± 1.3e-05 | 2370 ± 740 | 0.000728 ± 8.4e-05 | 7.98e-05 ± 1.7e-05 |
| A52G C67G | 0.000104 ± 6.8e-06 | 0.000107 ± 1e-05 | 0.000123 ± 1.6e-05 | 6.74e-05 ± 9e-06 | 22.4 ± 10 | 9.62e-05 ± 8.6e-06 | 7.15e-05 ± 2.3e-05 |
| A53U C67A | 0.00367 ± 0.00077 | 0.0014 ± 0.00022 | – | 0.000214 ± 2.6e-05 | 785 ± 230 | 0.00376 ± 0.00054 | 0.000559 ± 8.4e-05 |
| C50A C67A | 2.1e-05 ± 4.7e-06 | – | – | – | – | – | – |
| U47G C71G | 0.00028 ± 1.5e-05 | 0.000146 ± 1.7e-05 | 0.000205 ± 2.8e-05 | – | 685 ± 85 | 0.000265 ± 2.4e-05 | 5.19e-05 ± 7.8e-06 |
| C50G U69G | 0.000141 ± 7.4e-06 | 0.000151 ± 2.4e-05 | 0.000126 ± 2e-05 | 0.000135 ± 1.6e-05 | – | 0.000141 ± 1.5e-05 | 0.000165 ± 3e-05 |
